This note sets out measurements from US20130303439A1, “CHIMERIC PEPTIDES INCLUDING A PENETRATING PEPTIDE AND A BINDING DOMAIN OF PP2A CATALYTIC SUBUNIT TO CASPASE-9” (Institut National de la Sante et de la Recherche Medicale …, priority 2010, published 2013).

Residues, ends and D or L forms follow the SMILES beside them. No end group written: not given here.

Data set [1] is described as follows: Cell penetration / internalization of peptides. Type of data set: cell-based.
Another data set concerns the target T1, human caspase-9 (Homo sapiens, UniProt P55211).
T1 sequence (P55211 1-416): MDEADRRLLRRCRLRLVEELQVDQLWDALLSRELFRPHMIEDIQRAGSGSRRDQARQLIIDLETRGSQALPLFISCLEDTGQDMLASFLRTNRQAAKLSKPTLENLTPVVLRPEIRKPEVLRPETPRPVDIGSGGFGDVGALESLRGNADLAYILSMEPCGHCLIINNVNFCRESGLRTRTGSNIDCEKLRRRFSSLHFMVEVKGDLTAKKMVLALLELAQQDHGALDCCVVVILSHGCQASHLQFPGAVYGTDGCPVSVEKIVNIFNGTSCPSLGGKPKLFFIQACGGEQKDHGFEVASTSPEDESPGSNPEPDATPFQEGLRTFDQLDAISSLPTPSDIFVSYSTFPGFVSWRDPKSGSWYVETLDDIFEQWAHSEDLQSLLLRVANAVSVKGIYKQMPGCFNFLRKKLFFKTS
The data set is described as follows: Caspase-9-binding assay on cellulose-bound peptides containing human PP2Ac sequences. The settings on record: dodecapeptides bound onto cellulose membrane. On the procedure:
Overlapping dodecapeptides covering the whole human PP2Ac sequence were prepared by atomated spot synthesis (Abimed, Langerfield, Germany) onto an amino-derived cellulose membrane, as described (Frank and Overwin, 1996 Meth. Mol. Biol. 66, 149-169; Gausepohl et al., 1992 Pept Res, 5, 315-320). The membrane was saturated using 3% BSA and 3% non-fat dry milk, incubated with purified human caspase-9 and after several washing steps, incubates with anti-caspase-9 antibody, followed by PO-conjugated secondary antibody. Positive spots were visualized using the ECL system.
To identify peptides containing PP2Ac sequences able to binding to caspase-9, a series of 150 overlapping dodecapeptides (shift of 2 amino acids) from human PP2Ac (sequence deduced from NCBI, accession number NP_00270601) were bound onto a cellulose membrane and incubated with purified caspase-9.

The next data set has as its target T2, PP2Ac (Mus musculus, UniProt P63330).
T2 construct: endogenous in cells; host or cells: TS1αβ murine T cell line, IL-2-stimulated, NP-40 lysate
Kind of data set: Pull down assay of biotinylated peptides with cell lysate, Western blot with PP2Ac antibody. Type of data set: binding, murine. The settings on record: cellular extracts from IL-2-stimulated cells. How it is done: Biotinylated peptides were preincubated 2 h at 0-100 μM (in final concentration with lysate) at room temperature with 30 μl of streptavidin-coated immunomagnetic beads (Calbiochem, San Diego Calif.). During this time, […] exponentially growing TS1αβ cells were first washed twice with PBS and then lysed 10 minutes on ice in 400 μl of lysis buffer (50 mM Tris pH7.4, 150 mM NaCl, 20% glycerol, 1% NP-40, 10 mM EDTA, 1 mM PhenylMethylSulfonyl Fluoride, 10 mM NaF, 1 mM orthovanadate, “complete, EDTA-free” protease inhibitor cocktail from Roche).
Lysates were clarified at 13000 g for 10 minutes at 4° C. and were incubated with biotinylated peptides associated with the streptavidin-coated immunomagnetic beads 2 h at 4° C. Biotinylated peptides were pulled down with streptavidin beads and washed two times in 700 μl of lysis buffer on ice. Bound proteins and unbound lysates were then analyzed by SDS-PAGE and Western Blotting using PP1c or PP2Ac antibodies.
To determine the capacity of DPT-C9 to interact with PP2Ac, the inventors performed pull-down experiments using cellular extracts from IL-2-stimulated cells incubated with biotinylated peptides or beads alone.
For orientation: In western blotting, separated proteins are transferred to a membrane and probed.

A further data set concerns TS1αβ cells. Kind of data set: Cell death assay (annexin V / PI flow cytometry). Particulars: peptides at 150 μM. Type of data set: cell-based, murine. How it is done:
An Annexin-V-FITC conjugated kit (Roche) was used for the assessment of outer leaflet exposure of phosphatidylserine (PS) in the plasma membrane of apoptotic cells. Staining was performed according to the manufacturer's instructions. A total of […] cells were analyzed by flow cytometry in a FACSCalibur cytofluometer (BD Biosciences). Necrotic cells were excluded by propidium iodide (PI) staining, and single annexin V positive cells were considered apoptotic. For apoptotic analysis the different peptides were used at 150 μM.
Using flow cytometry detection of annexin V and PI, the inventors analyzed the capacity of DPT-C9 to induce apoptosis in TS1αβ cells cultured in presence of IL-2. In contrast to non penetrating C9 peptide, DPT-C9 induced a 6-fold increase of apoptosis.
For orientation: In flow cytometry, cells or beads pass a laser one at a time.

For data set [2], the target named is T3, caspase-9 from lysate of murine TS1αβ cells (mouse, UniProt Q8C3Q9 1-454, limits assumed).
T3 construct: Endogenous protein in the lysate; also called murine caspase-9; mouse caspase-9
T3 sequence (looked up): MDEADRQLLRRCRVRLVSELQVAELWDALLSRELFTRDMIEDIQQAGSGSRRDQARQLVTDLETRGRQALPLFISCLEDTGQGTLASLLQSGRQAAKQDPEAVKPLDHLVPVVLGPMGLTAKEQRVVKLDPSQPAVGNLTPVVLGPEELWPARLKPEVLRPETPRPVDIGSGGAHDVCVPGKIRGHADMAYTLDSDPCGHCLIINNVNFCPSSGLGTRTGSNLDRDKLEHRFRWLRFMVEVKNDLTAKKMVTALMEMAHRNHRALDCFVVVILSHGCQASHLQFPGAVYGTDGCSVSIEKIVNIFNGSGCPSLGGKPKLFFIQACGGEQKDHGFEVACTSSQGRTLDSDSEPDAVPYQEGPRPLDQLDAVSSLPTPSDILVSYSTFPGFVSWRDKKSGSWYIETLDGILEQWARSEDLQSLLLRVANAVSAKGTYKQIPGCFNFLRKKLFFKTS
Kind of data set: pull-down from IL-2-stimulated TS1αβ cell lysate with biotinylated peptide on streptavidin beads, Western blot.

The target of data set [3] is T4, PP2Ac (catalytic subunit of PP2A) from lysate of IL-2-stimulated murine TS1αβ cells (mouse, UniProt P63330 1-309).
T4 construct: Endogenous protein from cell lysate, detected by Western blot with a PP2Ac antibody; It may have been part of a PP2A holoenzyme in the lysate
T4 sequence (P63330 whole entry): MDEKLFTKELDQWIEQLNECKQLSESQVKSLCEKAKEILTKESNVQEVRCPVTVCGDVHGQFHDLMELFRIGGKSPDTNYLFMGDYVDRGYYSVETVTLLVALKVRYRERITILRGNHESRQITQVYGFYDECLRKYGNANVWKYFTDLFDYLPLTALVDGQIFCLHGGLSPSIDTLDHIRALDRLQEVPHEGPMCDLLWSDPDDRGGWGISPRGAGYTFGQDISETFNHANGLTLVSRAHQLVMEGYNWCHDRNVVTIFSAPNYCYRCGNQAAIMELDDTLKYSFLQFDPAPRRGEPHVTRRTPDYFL
Described as above.

T2 sequence (P63330 whole entry): as above

Turning to `CC[C@H](C)[C@H](NC(=O)CNC(=O)[C@H](CC(=O)O)NC(=O)[C@H](CC(C)C)NC(=O)[C@@H](NC(=O)[C@H](CCC(=O)O)NC(=O)[C@@H](NC(=O)[C@@H](N)Cc1ccc(O)cc1)[C@@H](C)CC)[C@@H](C)O)C(=O)N[C@@H](CC(C)C)C(=O)N[C@@H](CCC(=O)O)C(=O)N[C@@H](CCC(N)=O)C(=O)N[C@@H](Cc1c[nH]c2ccccc12)C(=O)N[C@@H](C)C(=O)N[C@@H](CCCNC(=N)N)C(=O)N[C@@H](CO)C(=O)N[C@@H](CCC(=O)O)C(=O)N[C@@H](CC(=O)O)C(=O)N[C@@H](CC(C)C)C(=O)O` [C9, YIETLDGILEQWARSEDL] (H-YIETLDGILEQWARSEDL-OH; N-terminus and C-terminus assumed), in data set [1], the Cell penetration entry is reported as “No” and the internalized entry is recorded as “is not internalized”.
In the same order, the values of `CC[C@H](C)[C@H](NC(=O)CNC(=O)[C@H](CC(=O)O)NC(=O)[C@H](CC(C)C)NC(=O)[C@@H](NC(=O)[C@H](CCC(=O)O)NC(=O)[C@@H](NC(=O)[C@H](Cc1ccc(O)cc1)NC(=O)[C@@H](NC(=O)[C@H](CCCCN)NC(=O)[C@@H](NC(=O)[C@H](CCC(=O)O)NC(=O)[C@H](CCCNC(=N)N)NC(=O)[C@H](CCCCN)NC(=O)[C@@H](NC(=O)[C@H](CCCCN)NC(=O)[C@H](CCCCN)NC(=O)[C@H](CCCCN)NC(=O)[C@H](CCCCN)NC(=O)[C@@H](N)C(C)C)[C@@H](C)CC)[C@@H](C)CC)[C@@H](C)CC)[C@@H](C)CC)[C@@H](C)O)C(=O)N[C@@H](CC(C)C)C(=O)N[C@@H](CCC(=O)O)C(=O)N[C@@H](CCC(N)=O)C(=O)N[C@@H](Cc1c[nH]c2ccccc12)C(=O)N[C@@H](C)C(=O)N[C@@H](CCCNC(=N)N)C(=O)N[C@@H](CO)C(=O)N[C@@H](CCC(=O)O)C(=O)N[C@@H](CC(=O)O)C(=O)N[C@@H](CC(C)C)C(=O)O` [DPT-C9, VKKKKIKREIKI-YIETLDGILEQWARSEDL] (H-VKKKKIKREIKIYIETLDGILEQWARSEDL-OH; N-terminus and C-terminus assumed) are “Yes” and “are internalized”.
As for `CC[C@H](C)[C@H](NC(=O)[C@H](CC(C)C)NC(=O)[C@H](CCC(=O)O)NC(=O)[C@H](CCC(N)=O)NC(=O)[C@H](Cc1c[nH]c2ccccc12)NC(=O)[C@H](C)NC(=O)[C@H](CCCNC(=N)N)NC(=O)[C@H](CO)NC(=O)[C@H](CCC(=O)O)NC(=O)[C@H](CC(=O)O)NC(=O)[C@H](CC(C)C)NC(=O)[C@@H](NC(=O)[C@H](CCCCN)NC(=O)[C@@H](NC(=O)[C@H](CCC(=O)O)NC(=O)[C@H](CCCNC(=N)N)NC(=O)[C@H](CCCCN)NC(=O)[C@@H](NC(=O)[C@H](CCCCN)NC(=O)[C@H](CCCCN)NC(=O)[C@H](CCCCN)NC(=O)[C@H](CCCCN)NC(=O)[C@@H](N)C(C)C)[C@@H](C)CC)[C@@H](C)CC)[C@@H](C)CC)C(=O)NCC(=O)N[C@@H](CC(=O)O)C(=O)N[C@@H](CC(C)C)C(=O)N[C@H](C(=O)N[C@@H](CCC(=O)O)C(=O)N[C@H](C(=O)N[C@@H](Cc1ccc(O)cc1)C(=O)O)[C@@H](C)CC)[C@@H](C)O` [DPT-C9r, VKKKKIKREIKI-LDESRAWQELIGDLTEIY] (H-VKKKKIKREIKILDESRAWQELIGDLTEIY-OH; N-terminus and C-terminus assumed), in data set [1], the Cell penetration entry is “Yes” and the internalized entry is listed as “are internalized”.
As for `N=C(N)NCCC[C@H](NC(=O)[C@H](CCCNC(=N)N)NC(=O)[C@H](CCCNC(=N)N)NC(=O)[C@H](CCC(N)=O)NC(=O)[C@H](CCCNC(=N)N)NC(=O)[C@H](CCCNC(=N)N)NC(=O)[C@H](CCCCN)NC(=O)[C@H](CCCCN)NC(=O)[C@H](CCCNC(=N)N)NC(=O)CNC(=O)[C@@H](N)Cc1ccc(O)cc1)C(=O)O` [Tat, YGRKKRRQRRR], the internalized result in data set [1] is given as “are internalized”.
As for “DTLDHIRALDRL (Synthetic PP2A peptide) [dodecapeptide from human PP2Ac]”, in the data set with human caspase-9, the “binding to purified caspase-9” value is given as “bind to purified caspase-9”.
With “HIRALDRLQEVP (Synthetic PP2A peptide) [dodecapeptide from human PP2Ac]”, the “binding to purified caspase-9” value in the data set with human caspase-9 is “bind to purified caspase-9”.
As for “LDHIRALDRLQE (Synthetic PP2A peptide) [dodecapeptide from human PP2Ac]”, the “binding to purified caspase-9” value with human caspase-9 is listed as “bind to purified caspase-9”.
Consider “LDRLQEVPHEGP (Synthetic PP2A peptide) [dodecapeptide from human PP2Ac]”, for which, in the data set with human caspase-9, the “binding to purified caspase-9” value is reported as “bind to purified caspase-9”.
“RALDRLQEVPHE (Synthetic PP2A peptide) [dodecapeptide from human PP2Ac]”: in the data set with human caspase-9, the “binding to purified caspase-9” value was “bind to purified caspase-9”.
Take VKKKKIKREIKI [DPT-sh1]: the “interact with PP2Ac” value with PP2Ac was “do not interact with PP2Ac”. In addition, in the data set with TS1αβ cells, the “induction of apoptosis / cell death (in words)” value was “behaves as negative control”. In addition, in data set [1], the Cell penetration entry is on record as “Yes” and the internalized entry is recorded as “are internalized”.
Take VKKKKIKREIKIYIETLDGILEQWARSEDL (also: biotinylated, position not given here, Used biotinylated in the pull-down) [DPT-C9 (fusion of DPT-sh1 shuttle and C9 sequence)]: the binding result in data set [2] is “no binding (tested: 0-100 µM peptide)”.

B1: DPT-C9r (fusion of DPT-sh1 and C9 reverse sequence) (peptide)
peptide: VKKKKIKREIKILDESRAWQELIGDLTEIY
modifications: also: biotinylated, position not given here
notes: Negative control peptide; Used biotinylated in the pull-down
For B1, the binding result in data set [3] was “no binding (tested: 0-100 µM peptide)”.

B2: C9 peptide (mouse caspase-9 aa 401-418, PP2Ac binding domain) (peptide)
peptide: YIETLDGILEQWARSEDL
modifications: also: biotinylated, position not given here
notes: Synthetic, non cell-penetrating peptide; Used biotinylated on streptavidin beads in the pull-down; also called C9m
For the molecule B2, in data set [2], the binding result is “no binding (tested: 0-100 µM peptide)”.
